T1: human IL-33 (human, UniProt O95760 112-270, limits assumed)
T1 sequence (looked up): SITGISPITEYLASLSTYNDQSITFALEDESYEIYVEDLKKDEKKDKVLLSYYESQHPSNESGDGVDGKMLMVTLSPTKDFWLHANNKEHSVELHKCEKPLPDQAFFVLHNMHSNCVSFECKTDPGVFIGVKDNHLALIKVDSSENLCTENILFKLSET

T2: cynomolgus IL-33 (cynomolgus, UniProt A0A2K5W3I1 112-269)
T2 construct: also called cynoIL-33; cIL-33
T2 sequence: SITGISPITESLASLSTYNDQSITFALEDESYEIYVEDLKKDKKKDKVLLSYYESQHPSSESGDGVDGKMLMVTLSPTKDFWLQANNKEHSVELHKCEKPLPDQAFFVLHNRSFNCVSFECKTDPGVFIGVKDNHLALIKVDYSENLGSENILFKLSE

B1: APE4909 antibody (antibody, V domains shown)
VH: QVQLMQSGAEVKKPGASVKVSCKASGYTFTSYWMHWVRQAPGQGLEWMGTIYPRNSNTDYNQKFKARVTMTRDTSTSTVYMELSSLRSEDTAVYYCARPLYYYLTSPPTLFWGQGTLVTVSS
VL: DIQLTQSPSFLSASVGDRVTITCKASQDVGTAVAWYQQKPGKAPKLLIYWASTRHTGVPSRFSGSGSGTEFTLTISSLQPEDFATYYCQQAKTYPFTFGSGTKLEIKR
notes: the claims treat these entries as variable regions; It was detected with an anti-human antibody; also called APE04909; APE4909.02 (lot suffix)

What was measured:
human IL-33 [1] = target: T1, human IL-33; assay: cell-based or functional assay
human IL-33 [2] = target: T1, human IL-33; assay: KinExA, solution equilibrium, beads coated with histidine-tagged human IL-33
Experimental: (§1) The ability of the APE4909 antibody described in Example 2 to interact with IL-33 was analyzed biophysically using a KINEXA™ 3200 biosensor platform from Sapidyne Instruments (Boise, Id.). Binding experiments for human and cynomolgus IL-33 (cynolL-33) were conducted as described below and were run twice independently. Conditions for the first experiment are shown non-parenthetically, while conditions for the second experiment are provided parenthetically.
(§2) Solid phase was prepared using azlactone-coated beads coated using a 50 μg/mL solution of histidine-tagged human IL-33. Binding experiments were performed in 1×PBS pH 7.4, 0.1% BSA. The APE4909 antibody at 10 pM (or 20 pM) final concentration was incubated with IL-33 at 200 pM to 3.4 fM (or 400 pM to 6.7 fM) final concentrations for 3 (or 4) days at 4° C. 5 mL (or 10 mL) of each mixture was applied to the beads coated with IL-33 at a rate of 0.25 mL/min for 1200 seconds (or 2400 seconds). Free antibody was detected with an ALEXAFLUOR™ 647-(Life Technologies, Carlsbad, Calif.) labeled donkey anti-human antibody. All data fit using standard KINEXA™ software.

cynomolgus IL-33 = target: T2, cynomolgus IL-33; assay: KinExA solution-phase equilibrium titration: APE4909 at a fixed concentration incubated with cynomolgus IL-33 as titrant, free antibody captured on cIL-33-coated beads
Experimental: as §1
as §2, with “5 mL (or 10 mL) of each mixture was applied to the beads coated with IL-33 at a rate of 0.25 mL/min for 1200 seconds (or 2400 seconds).” left out, “All data fit using standard KINEXA™ software.” left out
Experiments were performed as described above for human IL-33, except that the APE4909 antibody at 20 pM and 100 pM final concentration was incubated with cIL-33 at 3 nM to 315 fM final concentrations for 24 hours at 4° C. […] Free antibody was detected with an ALEXAFLUOR™ 647-(Life Technologies, Carlsbad, Calif.) labeled donkey anti-human antibody. […]

Molecule	IC50 of inhibition of IL-33-mediated release of IL-5 in primary human basophils (human IL-33 [1]) [nM]	IC50 of inhibition of IL-33-mediated release of IL-9 from primary human basophils (human IL-33 [1]) [nM]	Kd (human IL-33 [2]) [nM]	Kd (cynomolgus IL-33) [nM]
monomeric human ST2 protein (APE3906) (from UniProt Q01638 19-328) (receptor)	20			
B1	2.2	3	0.001	0.035

— patent US20180346562A1 (ANAPTYSBIO, published 2018)
